# From the supplement of paper PMC9112550, “Optimization of the antimicrobial peptide Bac7 by deep mutational scanning” (BMC Biology, 2022)
# Tested on: Escherichia coli TOP10
# Assay: shrunken log2 fold change of peptide-encoding DNA abundance (4.5 h post-induction vs induction); higher = less antimicrobial activity (less host growth inhibition)
# Conditions: time post-induction: 4.5 h; library: site-saturation at positions 5, 18, 19, 20
# 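Note: peptides expressed intracellularly from a pBAD plasmid library in pooled LB shake-flask culture, induced with 0.3% L-arabinose, DNA abundance read by NGS, three biological replicates, DESeq2 with apeglm shrinkage.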
row,Sequence,shrunken log2 fold change
1,RRIRLRPPRLPRPRPRPSAQPRP,0.0425
2,RRIRSRPPRLPRPRPRPSGEPRP,0.406
3,RRIRPRPPRLPRPRPRPTIAPRP,-0.0457
4,RRIRNRPPRLPRPRPRPVHFPRP,0.0937
5,RRIRTRPPRLPRPRPRPLHRPRP,-0.287
6,RRIRNRPPRLPRPRPRPIPTPRP,-0.0847
7,RRIRGRPPRLPRPRPRPYCIPRP,0.174
8,RRIRERPPRLPRPRPRPIDNPRP,-0.108
9,RRIRQRPPRLPRPRPRPSTLPRP,-0.319
10,RRIRYRPPRLPRPRPRPKSFPRP,-0.0139
11,RRIRSRPPRLPRPRPRPSPNPRP,0.0503
12,RRIRRRPPRLPRPRPRPWYCPRP,-0.21
13,RRIRPRPPRLPRPRPRPAEDPRP,-0.114
14,RRIRDRPPRLPRPRPRPYGSPRP,-0.0409
15,RRIRTRPPRLPRPRPRPVHAPRP,-0.00294
16,RRIRYRPPRLPRPRPRPWYNPRP,-0.764
17,RRIRFRPPRLPRPRPRPFRKPRP,-0.122
18,RRIRPRPPRLPRPRPRPHNVPRP,-0.104
19,RRIRIRPPRLPRPRPRPRGTPRP,0.277
20,RRIRYRPPRLPRPRPRPNDSPRP,-0.349
21,RRIRKRPPRLPRPRPRPYANPRP,-0.091
22,RRIRGRPPRLPRPRPRPGDIPRP,0.143

row,Sequence,shrunken log2 fold change
1,RRIRWRPPRLPRPRPRPFHYPRP,-2.18
2,RRIRHRPPRLPRPRPRPTSNPRP,-0.448
3,RRIRNRPPRLPRPRPRPFPGPRP,-0.00992
4,RRIRCRPPRLPRPRPRPCLHPRP,-0.824
5,RRIRTRPPRLPRPRPRPCQEPRP,-0.0218
6,RRIRFRPPRLPRPRPRPMQHPRP,0.0148
7,RRIRFRPPRLPRPRPRPIVMPRP,-0.731
8,RRIRIRPPRLPRPRPRPPEFPRP,-0.0754
9,RRIRHRPPRLPRPRPRPQVSPRP,-0.00697
10,RRIRSRPPRLPRPRPRPCVWPRP,0.8
11,RRIRTRPPRLPRPRPRPPNVPRP,-0.201
12,RRIRVRPPRLPRPRPRPYMCPRP,-0.274
13,RRIRKRPPRLPRPRPRPYDKPRP,-0.124
14,RRIRYRPPRLPRPRPRPDIQPRP,-0.349
15,RRIRCRPPRLPRPRPRPKHDPRP,-0.0567
16,RRIRLRPPRLPRPRPRPMRHPRP,0.188
17,RRIRLRPPRLPRPRPRPDKYPRP,-0.769
18,RRIRVRPPRLPRPRPRPHTNPRP,-0.471
19,RRIRQRPPRLPRPRPRPKDCPRP,-0.00225
20,RRIRGRPPRLPRPRPRPFTQPRP,-0.0854
21,RRIRRRPPRLPRPRPRPGMHPRP,0.217
22,RRIRRRPPRLPRPRPRPHCGPRP,-0.0836

row,Sequence,shrunken log2 fold change
1,RRIRMRPPRLPRPRPRPACQPRP,0.141
2,RRIRWRPPRLPRPRPRPQIGPRP,0.0807
3,RRIRHRPPRLPRPRPRPGMQPRP,0.0824
4,RRIRLRPPRLPRPRPRPQKYPRP,-0.442
5,RRIRDRPPRLPRPRPRPLPPPRP,0.306
6,RRIRIRPPRLPRPRPRPHVVPRP,-0.0217
7,RRIRKRPPRLPRPRPRPDCIPRP,0.75
8,RRIRERPPRLPRPRPRPIMDPRP,-0.247
9,RRIRNRPPRLPRPRPRPTEHPRP,0.141
10,RRIRHRPPRLPRPRPRPKMIPRP,-0.254
11,RRIRRRPPRLPRPRPRPQIWPRP,0.279
12,RRIRNRPPRLPRPRPRPNIMPRP,-0.599
13,RRIRGRPPRLPRPRPRPCHMPRP,-0.00127
14,RRIRMRPPRLPRPRPRPNHYPRP,-0.352
15,RRIRHRPPRLPRPRPRPFTWPRP,-0.408
16,RRIRIRPPRLPRPRPRPWLNPRP,-0.562
17,RRIRMRPPRLPRPRPRPRKAPRP,1.09
18,RRIRMRPPRLPRPRPRPIPCPRP,0.02
19,RRIRGRPPRLPRPRPRPACLPRP,0.792
20,RRIRKRPPRLPRPRPRPGVCPRP,0.87
21,RRIRIRPPRLPRPRPRPHLDPRP,0.178
22,RRIRGRPPRLPRPRPRPEIHPRP,1.13

row,Sequence,shrunken log2 fold change
1,RRIRSRPPRLPRPRPRPTDDPRP,-0.0687
2,RRIRDRPPRLPRPRPRPCDQPRP,0.0112
3,RRIRKRPPRLPRPRPRPDADPRP,0.163
4,RRIRQRPPRLPRPRPRPHHAPRP,-0.00332
5,RRIRLRPPRLPRPRPRPPVSPRP,0.11
6,RRIRARPPRLPRPRPRPQPRPRP,0.721
7,RRIRPRPPRLPRPRPRPVQMPRP,0.0287
8,RRIRGRPPRLPRPRPRPQWYPRP,0.25
9,RRIRKRPPRLPRPRPRPSQCPRP,0.127
10,RRIRQRPPRLPRPRPRPFHSPRP,-0.00884
11,RRIRGRPPRLPRPRPRPNTHPRP,0.102
12,RRIRSRPPRLPRPRPRPNHIPRP,-0.651
13,RRIRMRPPRLPRPRPRPWHEPRP,-0.126
14,RRIRRRPPRLPRPRPRPSSRPRP,-0.00108
15,RRIRDRPPRLPRPRPRPGLTPRP,0.262
16,RRIRPRPPRLPRPRPRPTIYPRP,-0.413
17,RRIRGRPPRLPRPRPRPDPRPRP,0.716
18,RRIRKRPPRLPRPRPRPCEDPRP,0.563
19,RRIRPRPPRLPRPRPRPQCHPRP,-0.457
20,RRIRCRPPRLPRPRPRPTIHPRP,-0.883
21,RRIRYRPPRLPRPRPRPQSKPRP,-0.607
22,RRIRPRPPRLPRPRPRPLARPRP,0.388

row,Sequence,shrunken log2 fold change
1,RRIRKRPPRLPRPRPRPLHRPRP,0.36
2,RRIRYRPPRLPRPRPRPIEDPRP,-0.274
3,RRIRQRPPRLPRPRPRPLEFPRP,0.052
4,RRIRPRPPRLPRPRPRPTYRPRP,-0.236
5,RRIRHRPPRLPRPRPRPIWTPRP,-0.311
6,RRIRNRPPRLPRPRPRPMSQPRP,-0.0161
7,RRIRERPPRLPRPRPRPWCSPRP,-0.177
8,RRIRQRPPRLPRPRPRPICRPRP,0.0232
9,RRIRPRPPRLPRPRPRPIEDPRP,-0.0617
10,RRIRPRPPRLPRPRPRPEPIPRP,0.26
11,RRIRKRPPRLPRPRPRPMGYPRP,-0.0267
12,RRIRQRPPRLPRPRPRPIPAPRP,0.214
13,RRIRCRPPRLPRPRPRPMSLPRP,-0.163
14,RRIRRRPPRLPRPRPRPLIEPRP,0.35
15,RRIRQRPPRLPRPRPRPNKAPRP,-0.041
16,RRIRYRPPRLPRPRPRPICVPRP,-0.293
17,RRIRRRPPRLPRPRPRPMSQPRP,0.247
18,RRIRSRPPRLPRPRPRPFHCPRP,-0.0582
19,RRIRFRPPRLPRPRPRPRFRPRP,-0.0973
20,RRIRKRPPRLPRPRPRPSCAPRP,0.523
21,RRIRNRPPRLPRPRPRPDRMPRP,-0.282
